Results: ChEMBL document CHEMBL2074562, “Substrate specificity of the rat liver Na(+)-bile salt cotransporter in Xenopus laevis oocytes and in CHO cells” (Am J Physiol, 1998)

Columns and labels:
Assay type in all cases: functional, cell-based
[1] = substrate: C[C@H](CCC(=O)NCC(=O)O)[C@H]1CC[C@H]2[C@@H]3[C@H](O)C[C@@H]4C[C@H](O)CC[C@]4(C)[C@H]3C[C@H](O)[C@]12C; experiment: (§1) TP_TRANSPORTER: uptake in Ntcp-expressing CHO cells
[2] = substrate: C[C@H](CCC(=O)NCCS(=O)(=O)O)[C@H]1CC[C@H]2[C@@H]3[C@H](O)C[C@@H]4C[C@H](O)CC[C@]4(C)[C@H]3CC[C@]12C; experiment: as §1
[3] = substrate: C[C@]12CC[C@@H]3c4ccc(OS(=O)(=O)O)cc4CC[C@H]3[C@@H]1CCC2=O; experiment: as §1

B1: Hepatic sodium/bile acid cotransporter (Rattus norvegicus) (protein)
chain: MEVHNVSAPFNFSLPPGFGHRATDKALSIILVLMLLLIMLSLGCTMEFSKIKAHLWKPKGVIVALVAQFGIMPLAAFLLGKIFHLSNIEALAILICGCSPGGNLSNLFTLAMKGDMNLSIVMTTCSSFSALGMMPLLLYVYSKGIYDGDLKDKVPYKGIMISLVIVLIPCTIGIVLKSKRPHYVPYILKGGMIITFLLSVAVTALSVINVGNSIMFVMTPHLLATSSLMPFSGFLMGYILSALFQLNPSCRRTISMETGFQNIQLCSTILNVTFPPEVIGPLFFFPLLYMIFQLAEGLLIIIIFRCYEKIKPPKDQTKITYKAAATEDATPAALEKGTHNGNIPPLQPGPSPNGLNSGQMAN
Km [1]: 27 µM
Km [2]: 5 µM
Km [3]: 27 µM
